B1: Vpu with LgBiT fused to its C-terminus (pBiT1.1-C-vpu) [HIV-1] / RBM10 fused to SmBiT (pBiT2.1-C-rbm10) [human] (parent complex)
chain 1: MQPIQIAIAALVVAIIIAIVVWSIVIIEYRKILRQRKIDRLIDRLIERAEDSGNESEGEISALVEMGVEMGHHAPWDIDDL
chain 2: MEYERRGGRGDRTGRYGATDRSQDDGGENRSRDHDYRDMDYRSYPREYGSQEGKHDYDDSSEEQSAEDSYEASPGSETQRRRRRRHRHSPTGPPGFPRDGDYRDQDYRTEQGEEEEEEEDEEEEEKASNIVMLRMLPQAATEDDIRGQLQSHGVQAREVRLMRNKSSGQSRGFAFVEFSHLQDATRWMEANQHSLNILGQKVSMHYSDPKPKINEDWLCNKCGVQNFKRREKCFKCGVPKSEAEQKLPLGTRLDQQTLPLGGRELSQGLLPLPQPYQAQGVLASQALSQGSEPSSENANDTIILRNLNPHSTMDSILGALAPYAVLSSSNVRVIKDKQTQLNRGFAFIQLSTIVEAAQLLQILQALHPPLTIDGKTINVEFAKGSKRDMASNEGSRISAASVASTAIAAAQWAISQASQGGEGTWATSEEPPVDYSYYQQDEGYGNSQGTESSLYAHGYLKGTKGPGITGTKGDPTGAGPEASLEPGADSVSMQAFSRAQPGAAPGIYQQSAEASSSQGTAANSQSYTIMSPAVLKSELQSPTHPSSALPPATSPTAQESYSQYPVPDVSTYQYDETSGYYYDPQTGLYYDPNSQYYYNAQSQQYLYWDGERRTYVPALEQSADGHKETGAPSKEGKEKKEKHKTKTAQQIAKDMERWARSLNKQKENFKNSFQPISSLRDDERRESATADAGYAILEKKGALAERQHTSMDLPKLASDDRPSPPRGLVAAYSGESDSEEEQERGGPEREEKLTDWQKLACLLCRRQFPSKEALIRHQQLSGLHKQNLEIHRRAHLSENELEALEKNDMEQMKYRDRAAERREKYGIPEPPEPKRRKYGGISTASVDFEQPTRDGLGSDNIGSRMLQAMGWKEGSGLGRKKQGIVTPIEAQTRVRGSGLGARGSSYGVTSTESYKETLHKTMVTRFNEAQ

Variants of: B1
Experiment: NanoBiT luciferase complementation reporter assay; HEK293T cells, co-transfection, read after 2 days; parent: 1; read off a plot

Row | Variant | ratio to parent
1 | chain 1 R34A | ~0.63
2 | chain 1 H73A | ~0.98
3 | chain 1 D77A | ~0.6
4 | chain 1 I26A | ~0.56
5 | chain 1 V25A | ~0.41
